Molecular target: recombinant human PD-1 protein (human, UniProt Q15116 25-167)
Experiment: indirect ELISA, recombinant human PD-1 coated, HRP anti-human IgG (Fab specific), 4-parameter fit

Sequence of recombinant human PD-1 protein (Q15116 25-167 limits assumed): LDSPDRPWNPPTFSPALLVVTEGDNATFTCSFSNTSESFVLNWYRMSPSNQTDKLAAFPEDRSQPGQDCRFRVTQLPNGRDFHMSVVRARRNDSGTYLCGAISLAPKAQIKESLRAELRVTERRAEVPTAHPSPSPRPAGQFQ

EC50: 0.0143 µg/mL
B1: Commercially available Tislelizumab (antibody, human IgG4 S228P, kappa)
heavy: QVQLQESGPGLVKPSETLSLTCTVSGFSLTSYGVHWIRQPPGKGLEWIGVIYADGSTNYNPSLKSRVTISKDTSKNQVSLKLSSVTAADTAVYYCARAYGNYWYIDVWGQGTTVTVSSASTKGPSVFPLAPCSRSTSESTAALGCLVKDYFPEPVTVSWNSGALTSGVHTFPAVLQSSGLYSLSSVVTVPSSSLGTKTYTCNVDHKPSNTKVDKRVESKYGPPCPPCPAPPVAGGPSVFLFPPKPKDTLMISRTPEVTCVVVAVSQEDPEVQFNWYVDGVEVHNAKTKPREEQFNSTYRVVSVLTVVHQDWLNGKEYKCKVSNKGLPSSIEKTISKAKGQPREPQVYTLPPSQEEMTKNQVSLTCLVKGFYPSDIAVEWESNGQPENNYKTTPPVLDSDGSFFLYSKLTVDKSRWQEGNVFSCSVMHEALHNHYTQKSLSLSLGK
light: DIVMTQSPDSLAVSLGERATINCKSSESVSNDVAWYQQKPGQPPKLLINYAFHRFTGVPDRFSGSGYGTDFTLTISSLQAEDVAVYYCHQAYSSPYTFGQGTKLEIKRTVAAPSVFIFPPSDEQLKSGTASVVCLLNNFYPREAKVQWKVDNALQSGNSQESVTEQDSKDSTYSLSSTLTLSKADYEKHKVYACEVTHQGLSSPVTKSFNRGEC

From patent publication EP4692127A1 (Kangma-Healthcode (Shanghai) Biotech Co., Ltd, dated 2026)
